Patent US20190016825A1

Columns and labels:
biotin-PCSK9-his [1] = target: biotin-PCSK9-his (UniProt Q8NBP7); assay: competitive ELISA, one antibody coated, biotin-PCSK9-his plus 50-fold competitor; competitor: 21B12
biotin-PCSK9-his [2] = target: biotin-PCSK9-his (UniProt Q8NBP7); assay: competitive ELISA, one antibody coated, biotin-PCSK9-his plus 50-fold competitor; competitor: h001-4

- IR (%) (biotin-PCSK9-his [1]): 97.8%
- IR (%) (biotin-PCSK9-his [2]): 3.86%
Substance: 21B12 (U.S. Pat. No. 8,030,457B2) (antibody)
